Data: patent US20230051701A1 (Bristol-Myers Squibb, published 2023)

T1: human CD73 on cells (Calu6, NCI-H292, SK-MEL-24, human tumor cell lines, human B and T cells) (human, UniProt P21589 27-549)
T1 construct: Endogenous protein; also called endogenous CD73; cellular CD73
T1 sequence: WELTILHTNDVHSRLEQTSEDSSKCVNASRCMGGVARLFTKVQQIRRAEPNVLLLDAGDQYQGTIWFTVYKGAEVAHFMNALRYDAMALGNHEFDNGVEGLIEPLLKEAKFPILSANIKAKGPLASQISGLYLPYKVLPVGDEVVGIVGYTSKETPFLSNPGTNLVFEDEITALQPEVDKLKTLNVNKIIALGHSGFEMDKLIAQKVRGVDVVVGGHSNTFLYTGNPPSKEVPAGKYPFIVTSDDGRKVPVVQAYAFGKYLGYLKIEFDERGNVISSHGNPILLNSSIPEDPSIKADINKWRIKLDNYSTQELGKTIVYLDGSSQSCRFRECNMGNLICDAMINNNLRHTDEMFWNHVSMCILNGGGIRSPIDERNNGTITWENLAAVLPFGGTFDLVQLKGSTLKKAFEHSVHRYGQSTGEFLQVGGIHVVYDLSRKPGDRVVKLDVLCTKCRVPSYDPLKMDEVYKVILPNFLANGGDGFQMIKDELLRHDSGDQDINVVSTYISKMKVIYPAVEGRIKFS

T2: full length extracellular domain of human CD73 linked to a His tag (human, UniProt P21589 27-547, glycosylated)
T2 construct: 27-553 is 27-547 plus that tag; also called hCD73-his; CD73-his
T2 sequence: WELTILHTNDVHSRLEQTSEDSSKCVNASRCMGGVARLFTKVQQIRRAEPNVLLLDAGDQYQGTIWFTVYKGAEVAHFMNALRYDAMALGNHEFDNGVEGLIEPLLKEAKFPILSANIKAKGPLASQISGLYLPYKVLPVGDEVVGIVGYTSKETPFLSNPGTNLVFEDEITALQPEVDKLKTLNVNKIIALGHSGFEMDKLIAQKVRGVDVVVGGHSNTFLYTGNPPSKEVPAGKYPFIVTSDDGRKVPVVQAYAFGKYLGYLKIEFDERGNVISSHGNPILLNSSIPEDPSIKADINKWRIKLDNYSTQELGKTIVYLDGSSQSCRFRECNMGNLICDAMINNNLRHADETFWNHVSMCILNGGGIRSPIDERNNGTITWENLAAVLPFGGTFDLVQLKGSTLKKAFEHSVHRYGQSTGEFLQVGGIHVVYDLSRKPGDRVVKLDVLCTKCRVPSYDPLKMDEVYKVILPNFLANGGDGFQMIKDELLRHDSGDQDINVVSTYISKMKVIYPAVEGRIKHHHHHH

T3: N-terminal domain of hCD73 (residues 26-336 of human CD73), His-tagged (human, UniProt P21589 26-336)
T3 construct: also called N-hCD73; N-hCD73-his
T3 sequence: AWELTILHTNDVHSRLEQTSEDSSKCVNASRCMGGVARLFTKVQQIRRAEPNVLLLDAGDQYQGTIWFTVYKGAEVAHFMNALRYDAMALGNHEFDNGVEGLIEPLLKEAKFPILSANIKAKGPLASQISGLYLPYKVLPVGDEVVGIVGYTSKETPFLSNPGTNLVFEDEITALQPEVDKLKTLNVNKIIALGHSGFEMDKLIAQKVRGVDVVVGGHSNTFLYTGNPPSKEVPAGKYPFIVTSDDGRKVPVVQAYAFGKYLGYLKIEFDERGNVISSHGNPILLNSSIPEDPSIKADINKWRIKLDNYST

T4: rhCD73 bound to his-tag magnet beads (human, UniProt P21589 27-549, limits assumed)
T4 sequence: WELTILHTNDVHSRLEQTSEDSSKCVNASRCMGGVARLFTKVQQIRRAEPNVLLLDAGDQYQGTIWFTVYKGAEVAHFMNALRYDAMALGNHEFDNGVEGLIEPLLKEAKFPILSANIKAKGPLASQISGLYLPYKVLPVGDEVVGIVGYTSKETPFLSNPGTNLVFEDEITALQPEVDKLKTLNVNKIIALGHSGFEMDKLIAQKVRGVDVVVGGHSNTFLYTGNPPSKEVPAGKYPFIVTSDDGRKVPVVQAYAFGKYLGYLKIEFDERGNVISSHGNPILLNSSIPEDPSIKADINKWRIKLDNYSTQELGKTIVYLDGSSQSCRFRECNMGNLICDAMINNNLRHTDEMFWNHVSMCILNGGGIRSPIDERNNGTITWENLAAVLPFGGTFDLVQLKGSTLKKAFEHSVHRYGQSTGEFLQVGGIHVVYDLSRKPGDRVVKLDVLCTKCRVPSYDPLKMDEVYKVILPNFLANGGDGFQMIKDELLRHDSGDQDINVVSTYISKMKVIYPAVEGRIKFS


Tests used:
[1] = molecular target: T1, human CD73 on cells (Calu6, NCI-H292, …); test: flow cytometry, FITC-mAb, B cells of donor D329
Description: (§1) Binding of CD73.4 antibody to human B and T cells was also determined. Human blood from two donors, D316 and D329, was obtained from Immunsciences, BMS. Peripheral blood mononuclear cells (PBMC) were isolated with Lympholyte-H cell separation gradient media. […] Cells from both donors were pooled for the unstained and FMO (Fluorescence minus one) control samples.

[2] = molecular target: T1, human CD73 on cells (Calu6, NCI-H292, …); test: flow cytometry, FITC-mAb, T cells of donor D316
Description: as §1

[3] = molecular target: T2, full length extracellular domain of …; test: SEC-MALS, equimolar mix 5.5 uM mAb + 5.5 uM hCD73-his, peak area
Description: The oligomeric state of CD73/antibody complexes were examined by size-exclusion chromatography coupled to an in-line multi-angle light scattering detector (SEC-MALS). Isocratic separations were performed on a Shodex PROTEIN KW-803 column connected to an Prominence Shimadzu UFLC in buffer containing 200 mM K2HPO4, 150 mM NaCl, pH 6.8, containing 0.02% Na azide (0.1 μm filtered) running at 0.5 mL/min. Samples were injected onto the column using a SIL-20AC Prominence Shimadzu autosampler, and data were obtained from three online detectors connected in series: a Prominence SPD-20AD diode array UV/vis spectrophotometer followed by a Wyatt miniDAWN™ TREOS Multi-Angle Light Scattering Detector then a Wyatt Optilab T-rEX Refractive Index Detector. Data were collected and analyzed using Astra (Wyatt) and Labsolutions (Shimadzu) software.
CD73.4 antibodies having the heavy chain constant regions set forth in Table 26 were also tested for formation of high molecular weight complexes by SEC-MALS and DLS experiments, as described in Example 11.

[4] = molecular target: T3, N-terminal domain of hCD73 (residues …); test: SPR, comparison of all IgG2 molecules
Description: For these experiments, protein A (Pierce) was immobilized to a density of 3000 — 4000 RU on flow cells 1-4 of a CM5 sensor chip (GE Healthcare) using standard ethyl(dimethylaminopropyl) carbodiimide (EDC)/N-hydroxysuccinimide (NHS) chemistry, with ethanolamine blocking, in a running buffer of 0.01 M HEPES pH 7.4, 0.15 M NaCl, 3 mM EDTA, 0.005% v/v tween 20. […] The running buffer for the kinetic experiments was 10 mM sodium phosphate, 130 mM sodium chloride, 0.05% tween 20, pH 7.1. The surfaces were regenerated after each cycle using two 30 s pulses of 10 mM glycine pH 1.5 at a flow rate of 30 μl/min. Sensogram data was double-referenced and then fitted to a 1:1 Langmuir model using Biacore T100 evaluation software v2.0.4, to determine the association rate constant (ka), the dissociation rate constant (kd), and the equilibrium dissociation constant (KD).

[5] = molecular target: T1, human CD73 on cells (Calu6, NCI-H292, …); test: cell-based or functional assay
[6] = molecular target: T4, rhCD73 bound to his-tag magnet beads; test: cell-based or functional assay

Row | Binder | IC50 [1] [nM] | IC50 [2] [nM] | UV % Peak1 <12.9 min (complexes larger than 4:4 hCD73-his:mAb) [3] [%] | fold lower affinity than 11F11 or CD73.4 [4] [fold] | EC50, blockade of endogenous cellular CD73 in Calu6 [5] [nM] | EC50 for blockade of endogenous cellular CD73 in Calu6 [5] [nM] | EC50, recombinant human CD73 enzyme inhibition assay [6] [nM]
1 | CD73.4-IgG2-C219S (antibody, also called CD73.4-IgG2CS; CD73.4-IgG2.3) heavy: QVQLVESGGGVVQPGRSLRLSCAASGFTFSNYGMHWVRQAPGKGLEWVAVILYDGSNKYYPDSVKGRFTISRDNSKNTLYLQMNSLRAEDTAVYYCARGGSSWYPDSFDIWGQGTMVTVSSASTKGPSVFPLAPCSRSTSESTAALGCLVKDYFPEPVTVSWNSGALTSGVHTFPAVLQSSGLYSLSSVVTVPSSNFGTQTYTCNVDHKPSNTKVDKTVERKSCVECPPCPAPPVAGPSVFLFPPKPKDTLMISRTPEVTCVVVDVSHEDPEVQFNWYVDGVEVHNAKTKPREEQFNSTFRVVSVLTVVHQDWLNGKEYKCKVSNKGLPAPIEKTISKTKGQPREPQVYTLPPSREEMTKNQVSLTCLVKGFYPSDIAVEWESNGQPENNYKTTPPMLDSDGSFFLYSKLTVDKSRWQQGNVFSCSVMHEALHNHYTQKSLSLSPG light: not shown | 0.0777 | 0.18 | 37 |  |  |  | 
2 | CD73.10-IgG2-C219S (antibody, also called CD73.10-IgG2CS; CD73.10-IgG2S) heavy: QVQLVESGGGVVQPGRSLRLSCAASGFTFSNYGMHWVRQAPGKGLEWVAVIWYDESNKYYPDSVKGRFTISRDNSKNTLYLQMNSLRAEDTAVYYCARGGSSWYPDSFDIWGQGTMVTVSSASTKGPSVFPLAPCSRSTSESTAALGCLVKDYFPEPVTVSWNSGALTSGVHTFPAVLQSSGLYSLSSVVTVPSSNFGTQTYTCNVDHKPSNTKVDKTVERKSCVECPPCPAPPVAGPSVFLFPPKPKDTLMISRTPEVTCVVVDVSHEDPEVQFNWYVDGVEVHNAKTKPREEQFNSTFRVVSVLTVVHQDWLNGKEYKCKVSNKGLPAPIEKTISKTKGQPREPQVYTLPPSREEMTKNQVSLTCLVKGFYPSDIAVEWESNGQPENNYKTTPPMLDSDGSFFLYSKLTVDKSRWQQGNVFSCSVMHEALHNHYTQKSLSLSPG light: not shown |  |  |  | ~10 |  |  | 
3 | CD73.4-IgG2-C219S-IgG1.1f (antibody, 94% of the N-terminal glutamine was pyro-Q; 97% of the heavy chains lacked the C-terminal lysine, also called CD73.4-IgG2CS-IgG1.1f) heavy: QVQLVESGGGVVQPGRSLRLSCAASGFTFSNYGMHWVRQAPGKGLEWVAVILYDGSNKYYPDSVKGRFTISRDNSKNTLYLQMNSLRAEDTAVYYCARGGSSWYPDSFDIWGQGTMVTVSSASTKGPSVFPLAPCSRSTSESTAALGCLVKDYFPEPVTVSWNSGALTSGVHTFPAVLQSSGLYSLSSVVTVPSSNFGTQTYTCNVDHKPSNTKVDKTVERKSCVECPPCPAPPVAGPSVFLFPPKPKDTLMISRTPEVTCVVVDVSHEDPEVKFNWYVDGVEVHNAKTKPREEQYNSTYRVVSVLTVLHQDWLNGKEYKCKVSNKALPSSIEKTISKAKGQPREPQVYTLPPSREEMTKNQVSLTCLVKGFYPSDIAVEWESNGQPENNYKTTPPVLDSDGSFFLYSKLTVDKSRWQQGNVFSCSVMHEALHNHYTQKSLSLSPG light: not shown | 0.145 | 0.183 |  |  | 0.31 to 0.48 | 0.31 to 0.48 | 2.9 to 3.1
